Results reported in patent US20100120700A1, “METHODS AND COMPOSITIONS FOR TREATING CERVICAL CANCER” (priority 2000, published 2010).
Entries after “also recorded” stand apart in the source; their conditions may differ.

T1: HPV16 E6/TIP 1 interaction (Homo sapiens, UniProt O14907)
T1 construct: made in house; host or cells: E. coli
T1 sequence (O14907 14-116): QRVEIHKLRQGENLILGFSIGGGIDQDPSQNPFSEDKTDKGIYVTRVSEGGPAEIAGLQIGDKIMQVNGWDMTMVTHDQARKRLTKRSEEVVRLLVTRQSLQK


Assays:
[1] = test system: c-JUN N-terminal kinase (JNK); assay: Jun kinase assay in microinjected Xenopus oocytes; assay type: cell-based; parameters: inhibition of HPV16 E6-dependent JNK activation by co-injected peptide: dose or concentration left out as unconfirmed; conditions: Xenopus oocytes; for JNK activation by microinjected E6 fusion protein: MBP-E6 or GST-E6 protein (100 nM, 3h), GST-Jun phosphorylation
Description: Experimental Design: This experiment was divided into two phases. In the first phase, an MBP-E6 fusion protein (HPV16; see example 4) was microinjected into Xenopus oocytes at different concetrations and then the oocytes were assayed for INK activity. In the second phase, peptides corresponding to the C-termini of non-oncogenic E6 protein (HPV11), HPV16 E6 (oncogenic) or Tax (shown to block oncogenic E6 binding to PDZ domains, FIG. 3) were co-injected with an activating amount of MBP-E6 fusion protein to assess ther abilities to block JNK activation.
Isolation and Microinjection of Oocytes—Xenopus ovarian tissue was surgically removed, and oocytes were defolliculated for 1-1.5 h at room temperature with 2 mg/ml collagenase and 0.5 mg/ml polyvinylpyrrolidone in Ca21-free modified Barth's solution (88 mM NaCl, 1 mM KCl, 0.82 mM MgSO4, 2.4 mM NaHCO3, 10 mM HEPES, pH 7.5). The oocytes were then washed four times with modified Barth's solution. Stage VI oocytes were sorted manually and incubated at 16° C. for at least 10 h in OR2 solution (82.5 mM NaCl, 2.5 mM KCl, 1 mM CaCl2, 1 mM Na2HPO4, 5 mM HEPES, pH 7.5) supplemented with 1 mg/ml bovine serum albumin and […] gentamicin. Immature oocytes were microinjected with purified MBP-E6 protein or E6 protein and peptide and transferred to fresh OR2 for the duration of the time course. Five oocytes were collected per time point, frozen on dry ice, and stored at −80° C.
Lysis of Oocytes, Eggs, and Embryos—Frozen oocytes, eggs, and embryos were thawed rapidly and lysed by pipetting up and down in 60 ml of ice-cold extraction buffer (EB) (0.25 M sucrose, 0.1 M NaCl, 2.5 mM MgCl2, 20 mM HEPES, pH 7.2) containing 10 mM EDTA, protease inhibitors (10 mg/ml leupeptin, 10 mg/ml pepstatin, 10 mg/ml aprotinin, 1 mM phenylmethylsulfonyl fluoride), and phosphatase inhibitors (50 mM 2-glycerophosphate, 1 mM sodium orthovanadate, 2 mM microcystin). Samples were clarified by centrifugation for 2.5 min in a Beckman E microcentrifuge with a right angle rotor. Crude cytoplasm was collected and processed for immunoblotting or kinase assays, as described below.
Jun Kinase Assay—Jun kinase assays were performed as described. Crude oocyte, egg, or embryo cytoplasm was diluted 1:1 in EB and pre-cleared with 20 ml of glutathione-Sepharose beads (Amersham Pharmacia Biotech) for 1 h at 4° C. with moderate shaking. Lysates were incubated with glutathione S-transferase GST-c-Jun-(1-79) fusion protein (hereafter denoted GST-Jun) immobilized on glutathione- Sepharose beads. After 3 h at 4° C., the beads were washed three times with 50 mM HEPES, pH 7.5, 150 mM NaCl, 1% Triton X-100, 1 mM EDTA, 10% glycerol, 10 mM sodium pyrophosphate, 2 mM sodium orthovanadate, 10 mM sodium fluoride, 1 mM phenylmethylsulfonyl fluoride, and 10 mg/ml aprotinin (24) and once with 0.4 ml of kinase buffer (20 mM HEPES, pH 7.5, 10 mM MgCl2, 1 mM dithiothreitol, 200 mM sodium orthovanadate). The bound JNK activity was detected by the addition of 1 mCi of [g-32]JATP. The reaction was terminated after 20 min at 30° C., and the products were resolved by SDS-PAGE. The gels were transferred to PVDF membranes (Hybond; Amersham Pharmacia Biotech) and the incorporation of [32P]phosphate into GST-Jun was visualized by autoradiography. […]

[2] = target: T1, HPV16 E6/TIP 1 interaction; assay: Modified G assay, inhibition of TIP1-HPV E6 16 binding; conditions: HPV E6 16 peptide 10 uM, TIP1 fusion protein 5 ug/mL, Tax peptide 0.001-100 uM, FIG. 3
Description: In one embodiment (in which a G assay is used), one or more PDZ domain-containing GST-fusion proteins are bound to the surface of wells of a 96-well plate as described supra (with appropriate controls including nonfusion GST protein). All fusion proteins are bound in multiple wells so that appropriate controls and statistical analysis can be done. A test compound in BSA/PBS (typically at multiple different concentrations) is added to wells. Immediately thereafter, 30 uL of a detectably labeled (e.g., biotinylated) peptide known to bind to the relevant PDZ domain (see, e.g., TABLE 3) is added in each of the wells at a final concentration of, e.g., between about 2 uM and about 40 uM, typically 5 uM, 15 uM, or 25 uM. […] The surface is washed free of unbound peptide three times with ice cold PBS and the amount of binding of the peptide in the presence and absence of the test compound is determined. Usually, the level of binding is measured for each set of replica wells (e.g. duplicates) by subtracting the mean GST alone background from the mean of the raw measurement of peptide binding in these wells. […]
Protocol • 1. […] Take early readings, if necessary, at 650 nm • 17. At 30 minutes, stop reaction with 100 ul of 0.18M H2SO4, and take final reading at 450 nm […]

Molecule | JNK activation by microinjected E6 fusion protein [1] | inhibition of HPV16 E6-dependent JNK activation by co-injected peptide ([1]; co-injected with activating amount of HPV16 E6 fusion protein) | inhibition of binding between TIP1 and HPV E6 16 (A450) [2] | inhibition of binding between TIP1 and HPV E6 16 (A450) ([2]; listed as Tax peptide) | JNK activation by microinjected E6 fusion protein ([1]; listed as HPV E6 16)
HPV18 E6: recombinant GST-E6 fusion protein of HPV18 microinjected into Xenopus oocytes | activated the JNK MAPK pathway in the oocyte |  |  |  | 
Tax PL peptide: unlabeled peptide corresponding to the C-terminus of Tax, an independent PDZ ligand that binds similar PDZ domains (QISPGGLEPPSEKHFRETEV) |  | can be inhibited by co-injection | decrease binding between TIP1 and HPV E6 16 | Inhibition of the interaction between HPV E6 16 and TIP1 | 
HPV16 E6: recombinant full length HPV16 E6 fusion protein (MBP-E6 or GST-E6) microinjected into Xenopus oocytes (protein) MHQKRTAMFQDPQERPRKLPQLCTELQTTIHDIILECVYCKQQLLRREVYDFAFRDLCIVYRDGNPYAVCDKCLKFYSKISEYRHYCYSLYGTTLEQQYNKPLCDLLIRCINCQKPLCPEEKQRHLDKKQRFHNIRGRWTGRCMSCCRSSRTRRETQL | activates c-JUN N-terminal kinase; also recorded: activated the JNK MAPK pathway in the oocyte |  |  |  | activates c-JUN N-terminal kinase (JNK)
